Reference: PMC6044554

Biological target: InlPΔLRR5-GST fusion protein (Listeria monocytogenes)
Assay: pull-down; GST or GST fusion bait on Glutathione Sepharose 4B incubated overnight with MDCK cell lysate; beads boiled in SDS sample buffer; Western blot with anti-afadin antibody

Substance: afadin (MDCK cells) (natural protein)
- fold decrease of afadin binding against InlP-GST: > 10 fold
